{
  "source": "patent US8337823B2",
  "about": "“Modified macromolecule” (priority 2006, dated 2012)",
  "origin": "cited, not measured here",
  "conditions": "pH 4 and pH 5",
  "data": [
    {"substance": "α-methoxy-ω-{N-(2-cholesteryloxy-[1,3]dioxolan-4-yl)methylamido)-polyethyleneglycol110", "values": [
      {"measurement": "stability of the conjugate in acidic conditions", "value": "very stable at pH 5 but moderately less stable at pH 4"}
    ]},
    {"substance": "α-methoxy-ω-(N-(2-methyl-s-octadedcyloxy-[1,3]dioxan-5-yl)-amido}-polyethyleneglycol110", "values": [
      {"measurement": "stability of the conjugate in acidic conditions", "value": "not stable"}
    ]},
    {"substance": "α-methoxy-ω-{N-2-(3-hydroxypropyl-cholesterylcarbamate)-2-methyl-[1,3]dioxan-5-yl-amido}-polyethyleneglycol110", "values": [
      {"measurement": "stability of the conjugate in acidic conditions", "value": "not stable"}
    ]},
    {"substance": "α-methoxy-ω-N-(2-octadecyloxy-[1,3]dioxolan-4-yl)methylamido}-polyethyleneglycol110", "values": [
      {"measurement": "stability of the conjugate in acidic conditions", "value": "good stability at both pH 4 and 5"}
    ]}
  ]
}
